Test results published in patent US20130005646A1 (Novo Nordisk, published 2013).
One block for each binder: values may come before it. Starred links: 1 amine or outer side, 2 acyl side, 3 side chain; linkers in the order of their positions; H or OH if unused. Positions of bridges follow the written chain, without caps; N, C: chain ends. *: point of attachment. C20 diacid = O=C(O)CCCCCCCCCCCCCCCCCCC(=O)*; γGlu = O=C(O)[C@H](CCC(=O)[*:2])N[*:1]

Legend:
[1] = target: T1, human amylin 3(a) receptor (human calcitonin receptor + RAMP-3) (human, UniProt P30988 25-474; O60896 24-148); experiment: cell-based or functional assay
T1 sequence (looked up) 1: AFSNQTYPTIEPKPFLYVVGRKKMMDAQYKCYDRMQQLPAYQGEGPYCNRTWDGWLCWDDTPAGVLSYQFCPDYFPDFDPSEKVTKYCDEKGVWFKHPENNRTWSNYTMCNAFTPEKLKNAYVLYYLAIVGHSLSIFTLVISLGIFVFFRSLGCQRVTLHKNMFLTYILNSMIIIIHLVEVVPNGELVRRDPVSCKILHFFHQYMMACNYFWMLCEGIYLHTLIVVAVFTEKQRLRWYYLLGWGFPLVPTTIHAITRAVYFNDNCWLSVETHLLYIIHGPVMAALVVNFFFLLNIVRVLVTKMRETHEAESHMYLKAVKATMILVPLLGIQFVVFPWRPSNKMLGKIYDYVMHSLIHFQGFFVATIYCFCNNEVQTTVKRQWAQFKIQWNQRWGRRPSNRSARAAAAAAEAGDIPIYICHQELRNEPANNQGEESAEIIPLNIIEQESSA
T1 sequence (looked up) 2: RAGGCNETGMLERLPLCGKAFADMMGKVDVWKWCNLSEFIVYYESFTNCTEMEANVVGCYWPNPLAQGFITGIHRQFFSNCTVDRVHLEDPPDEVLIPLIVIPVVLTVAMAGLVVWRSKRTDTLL

[2] = target: T2, human calcitonin (a) receptor (human, UniProt P30988 25-474); experiment: cell-based or functional assay
T2 sequence (looked up): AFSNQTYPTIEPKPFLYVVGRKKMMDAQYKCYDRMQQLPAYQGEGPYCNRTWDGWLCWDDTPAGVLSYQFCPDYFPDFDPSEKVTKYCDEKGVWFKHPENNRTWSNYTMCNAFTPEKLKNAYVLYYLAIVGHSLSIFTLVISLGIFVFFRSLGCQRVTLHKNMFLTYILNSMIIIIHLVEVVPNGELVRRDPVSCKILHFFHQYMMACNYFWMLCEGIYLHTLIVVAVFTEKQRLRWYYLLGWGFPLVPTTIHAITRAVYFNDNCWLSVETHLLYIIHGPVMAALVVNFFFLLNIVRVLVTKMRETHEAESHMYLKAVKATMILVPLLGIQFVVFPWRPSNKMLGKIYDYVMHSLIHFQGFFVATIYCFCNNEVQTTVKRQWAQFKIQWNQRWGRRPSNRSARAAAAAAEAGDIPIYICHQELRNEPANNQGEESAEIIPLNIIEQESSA

B1: N-alpha-[(S)-4-Carboxy-4-(19-carboxynonadecanoylamino)butyryl]-Glu-Arg-[Glu1,Glu14,Arg17,Gln21,Gln35,Pro37]-pramlintide (peptide)
peptide: {C20 diacid-γGlu}-ERECNTATCATQRLAEFLRHSSQNFGPILPPTNVGSQTP-NH2
modifications: disulfide 4-9
SMILES: CC[C@H](C)[C@H](NC(=O)[C@@H]1CCCN1C(=O)CNC(=O)[C@H](Cc1ccccc1)NC(=O)[C@H](CC(N)=O)NC(=O)[C@H](CCC(N)=O)NC(=O)[C@H](CO)NC(=O)[C@H](CO)NC(=O)[C@H](Cc1c[nH]cn1)NC(=O)[C@H](CCCNC(=N)N)NC(=O)[C@H](CC(C)C)NC(=O)[C@H](Cc1ccccc1)NC(=O)[C@H](CCC(=O)O)NC(=O)[C@H](C)NC(=O)[C@H](CC(C)C)NC(=O)[C@H](CCCNC(=N)N)NC(=O)[C@H](CCC(N)=O)NC(=O)[C@@H](NC(=O)[C@H](C)NC(=O)[C@@H]1CSSC[C@H](NC(=O)[C@H](CCC(=O)O)NC(=O)[C@H](CCCNC(=N)N)NC(=O)[C@H](CCC(=O)O)NC(=O)CC[C@H](NC(=O)CCCCCCCCCCCCCCCCCCC(=O)O)C(=O)O)C(=O)N[C@@H](CC(N)=O)C(=O)N[C@@H]([C@@H](C)O)C(=O)N[C@@H](C)C(=O)N[C@@H]([C@@H](C)O)C(=O)N1)[C@@H](C)O)C(=O)N[C@@H](CC(C)C)C(=O)N1CCC[C@H]1C(=O)N1CCC[C@H]1C(=O)N[C@H](C(=O)N[C@@H](CC(N)=O)C(=O)N[C@H](C(=O)NCC(=O)N[C@@H](CO)C(=O)N[C@@H](CCC(N)=O)C(=O)N[C@H](C(=O)N1CCC[C@H]1C(N)=O)[C@@H](C)O)C(C)C)[C@@H](C)O
Amylin receptor human EC50 [1]: 0.411 nM
CTa receptor human EC50 [2]: 2.19 nM

B2: N-alpha-[(S)-4-Carboxy-4-(19-carboxynonadecanoylamino)butyryl]-Glu-Glu-[Arg1,Glu14,Arg17,Gln21,Gln35,Pro37]-pramlintide (peptide)
peptide: {C20 diacid-γGlu}-EERCNTATCATQRLAEFLRHSSQNFGPILPPTNVGSQTP-NH2
modifications: disulfide 4-9
SMILES: CC[C@H](C)[C@H](NC(=O)[C@@H]1CCCN1C(=O)CNC(=O)[C@H](Cc1ccccc1)NC(=O)[C@H](CC(N)=O)NC(=O)[C@H](CCC(N)=O)NC(=O)[C@H](CO)NC(=O)[C@H](CO)NC(=O)[C@H](Cc1c[nH]cn1)NC(=O)[C@H](CCCNC(=N)N)NC(=O)[C@H](CC(C)C)NC(=O)[C@H](Cc1ccccc1)NC(=O)[C@H](CCC(=O)O)NC(=O)[C@H](C)NC(=O)[C@H](CC(C)C)NC(=O)[C@H](CCCNC(=N)N)NC(=O)[C@H](CCC(N)=O)NC(=O)[C@@H](NC(=O)[C@H](C)NC(=O)[C@@H]1CSSC[C@H](NC(=O)[C@H](CCCNC(=N)N)NC(=O)[C@H](CCC(=O)O)NC(=O)[C@H](CCC(=O)O)NC(=O)CC[C@H](NC(=O)CCCCCCCCCCCCCCCCCCC(=O)O)C(=O)O)C(=O)N[C@@H](CC(N)=O)C(=O)N[C@@H]([C@@H](C)O)C(=O)N[C@@H](C)C(=O)N[C@@H]([C@@H](C)O)C(=O)N1)[C@@H](C)O)C(=O)N[C@@H](CC(C)C)C(=O)N1CCC[C@H]1C(=O)N1CCC[C@H]1C(=O)N[C@H](C(=O)N[C@@H](CC(N)=O)C(=O)N[C@H](C(=O)NCC(=O)N[C@@H](CO)C(=O)N[C@@H](CCC(N)=O)C(=O)N[C@H](C(=O)N1CCC[C@H]1C(N)=O)[C@@H](C)O)C(C)C)[C@@H](C)O
Amylin receptor human EC50 [1]: 1.13 nM
CTa receptor human EC50 [2]: 1.19 nM

B3: N-alpha-[(S)-4-Carboxy-4-(19-carboxynonadecanoylamino)butyryl]-Glu-Glu-[Arg1,Glu14,Arg17,Gln21,Pro37]-pramlintide (peptide)
peptide: {C20 diacid-γGlu}-EERCNTATCATQRLAEFLRHSSQNFGPILPPTNVGSNTP-NH2
modifications: disulfide 4-9
SMILES: CC[C@H](C)[C@H](NC(=O)[C@@H]1CCCN1C(=O)CNC(=O)[C@H](Cc1ccccc1)NC(=O)[C@H](CC(N)=O)NC(=O)[C@H](CCC(N)=O)NC(=O)[C@H](CO)NC(=O)[C@H](CO)NC(=O)[C@H](Cc1c[nH]cn1)NC(=O)[C@H](CCCNC(=N)N)NC(=O)[C@H](CC(C)C)NC(=O)[C@H](Cc1ccccc1)NC(=O)[C@H](CCC(=O)O)NC(=O)[C@H](C)NC(=O)[C@H](CC(C)C)NC(=O)[C@H](CCCNC(=N)N)NC(=O)[C@H](CCC(N)=O)NC(=O)[C@@H](NC(=O)[C@H](C)NC(=O)[C@@H]1CSSC[C@H](NC(=O)[C@H](CCCNC(=N)N)NC(=O)[C@H](CCC(=O)O)NC(=O)[C@H](CCC(=O)O)NC(=O)CC[C@H](NC(=O)CCCCCCCCCCCCCCCCCCC(=O)O)C(=O)O)C(=O)N[C@@H](CC(N)=O)C(=O)N[C@@H]([C@@H](C)O)C(=O)N[C@@H](C)C(=O)N[C@@H]([C@@H](C)O)C(=O)N1)[C@@H](C)O)C(=O)N[C@@H](CC(C)C)C(=O)N1CCC[C@H]1C(=O)N1CCC[C@H]1C(=O)N[C@H](C(=O)N[C@@H](CC(N)=O)C(=O)N[C@H](C(=O)NCC(=O)N[C@@H](CO)C(=O)N[C@@H](CC(N)=O)C(=O)N[C@H](C(=O)N1CCC[C@H]1C(N)=O)[C@@H](C)O)C(C)C)[C@@H](C)O
Amylin receptor human EC50 [1]: 0.465 nM
CTa receptor human EC50 [2]: 0.547 nM

B4: N-alpha-[(S)-4-Carboxy-4-(19-carboxynonadecanoylamino)butyryl]-Glu-Arg-[Glu1,Glu14,Arg17,Gln21,Pro37]-pramlintide (peptide)
peptide: {C20 diacid-γGlu}-ERECNTATCATQRLAEFLRHSSQNFGPILPPTNVGSNTP-NH2
modifications: disulfide 4-9
SMILES: CC[C@H](C)[C@H](NC(=O)[C@@H]1CCCN1C(=O)CNC(=O)[C@H](Cc1ccccc1)NC(=O)[C@H](CC(N)=O)NC(=O)[C@H](CCC(N)=O)NC(=O)[C@H](CO)NC(=O)[C@H](CO)NC(=O)[C@H](Cc1c[nH]cn1)NC(=O)[C@H](CCCNC(=N)N)NC(=O)[C@H](CC(C)C)NC(=O)[C@H](Cc1ccccc1)NC(=O)[C@H](CCC(=O)O)NC(=O)[C@H](C)NC(=O)[C@H](CC(C)C)NC(=O)[C@H](CCCNC(=N)N)NC(=O)[C@H](CCC(N)=O)NC(=O)[C@@H](NC(=O)[C@H](C)NC(=O)[C@@H]1CSSC[C@H](NC(=O)[C@H](CCC(=O)O)NC(=O)[C@H](CCCNC(=N)N)NC(=O)[C@H](CCC(=O)O)NC(=O)CC[C@H](NC(=O)CCCCCCCCCCCCCCCCCCC(=O)O)C(=O)O)C(=O)N[C@@H](CC(N)=O)C(=O)N[C@@H]([C@@H](C)O)C(=O)N[C@@H](C)C(=O)N[C@@H]([C@@H](C)O)C(=O)N1)[C@@H](C)O)C(=O)N[C@@H](CC(C)C)C(=O)N1CCC[C@H]1C(=O)N1CCC[C@H]1C(=O)N[C@H](C(=O)N[C@@H](CC(N)=O)C(=O)N[C@H](C(=O)NCC(=O)N[C@@H](CO)C(=O)N[C@@H](CC(N)=O)C(=O)N[C@H](C(=O)N1CCC[C@H]1C(N)=O)[C@@H](C)O)C(C)C)[C@@H](C)O
Amylin receptor human EC50 [1]: 0.232 nM
CTa receptor human EC50 [2]: 1.13 nM

Further lines, results first:

Amylin receptor human EC50 [1]: 0.313 nM
CTa receptor human EC50 [2]: 0.526 nM
B5: N-alpha-[(S)-4-Carboxy-4-(19-carboxynonadecanoylamino)butyryl]-Glu-Glu-[Arg1,Glu14,Arg17,Pro37]-pramlintide (peptide)
peptide: {C20 diacid-γGlu}-EERCNTATCATQRLAEFLRHSSNNFGPILPPTNVGSNTP-NH2
modifications: disulfide 4-9
SMILES: CC[C@H](C)[C@H](NC(=O)[C@@H]1CCCN1C(=O)CNC(=O)[C@H](Cc1ccccc1)NC(=O)[C@H](CC(N)=O)NC(=O)[C@H](CC(N)=O)NC(=O)[C@H](CO)NC(=O)[C@H](CO)NC(=O)[C@H](Cc1c[nH]cn1)NC(=O)[C@H](CCCNC(=N)N)NC(=O)[C@H](CC(C)C)NC(=O)[C@H](Cc1ccccc1)NC(=O)[C@H](CCC(=O)O)NC(=O)[C@H](C)NC(=O)[C@H](CC(C)C)NC(=O)[C@H](CCCNC(=N)N)NC(=O)[C@H](CCC(N)=O)NC(=O)[C@@H](NC(=O)[C@H](C)NC(=O)[C@@H]1CSSC[C@H](NC(=O)[C@H](CCCNC(=N)N)NC(=O)[C@H](CCC(=O)O)NC(=O)[C@H](CCC(=O)O)NC(=O)CC[C@H](NC(=O)CCCCCCCCCCCCCCCCCCC(=O)O)C(=O)O)C(=O)N[C@@H](CC(N)=O)C(=O)N[C@@H]([C@@H](C)O)C(=O)N[C@@H](C)C(=O)N[C@@H]([C@@H](C)O)C(=O)N1)[C@@H](C)O)C(=O)N[C@@H](CC(C)C)C(=O)N1CCC[C@H]1C(=O)N1CCC[C@H]1C(=O)N[C@H](C(=O)N[C@@H](CC(N)=O)C(=O)N[C@H](C(=O)NCC(=O)N[C@@H](CO)C(=O)N[C@@H](CC(N)=O)C(=O)N[C@H](C(=O)N1CCC[C@H]1C(N)=O)[C@@H](C)O)C(C)C)[C@@H](C)O

Amylin receptor human EC50 [1]: 0.066 nM
CTa receptor human EC50 [2]: 0.168 nM
B6: N-alpha-[(S)-4-Carboxy-4-(19-carboxynonadecanoylamino)butyryl]-Glu-[Arg1,Glu14,Arg17,Pro37]-pramlintide (peptide)
peptide: {C20 diacid-γGlu}-ERCNTATCATQRLAEFLRHSSNNFGPILPPTNVGSNTP-NH2
modifications: disulfide 3-8
SMILES: CC[C@H](C)[C@H](NC(=O)[C@@H]1CCCN1C(=O)CNC(=O)[C@H](Cc1ccccc1)NC(=O)[C@H](CC(N)=O)NC(=O)[C@H](CC(N)=O)NC(=O)[C@H](CO)NC(=O)[C@H](CO)NC(=O)[C@H](Cc1c[nH]cn1)NC(=O)[C@H](CCCNC(=N)N)NC(=O)[C@H](CC(C)C)NC(=O)[C@H](Cc1ccccc1)NC(=O)[C@H](CCC(=O)O)NC(=O)[C@H](C)NC(=O)[C@H](CC(C)C)NC(=O)[C@H](CCCNC(=N)N)NC(=O)[C@H](CCC(N)=O)NC(=O)[C@@H](NC(=O)[C@H](C)NC(=O)[C@@H]1CSSC[C@H](NC(=O)[C@H](CCCNC(=N)N)NC(=O)[C@H](CCC(=O)O)NC(=O)CC[C@H](NC(=O)CCCCCCCCCCCCCCCCCCC(=O)O)C(=O)O)C(=O)N[C@@H](CC(N)=O)C(=O)N[C@@H]([C@@H](C)O)C(=O)N[C@@H](C)C(=O)N[C@@H]([C@@H](C)O)C(=O)N1)[C@@H](C)O)C(=O)N[C@@H](CC(C)C)C(=O)N1CCC[C@H]1C(=O)N1CCC[C@H]1C(=O)N[C@H](C(=O)N[C@@H](CC(N)=O)C(=O)N[C@H](C(=O)NCC(=O)N[C@@H](CO)C(=O)N[C@@H](CC(N)=O)C(=O)N[C@H](C(=O)N1CCC[C@H]1C(N)=O)[C@@H](C)O)C(C)C)[C@@H](C)O
